# Columns and labels:
# [1] = molecular target: human ghrelin O-acyltransferase (hGOAT), FLAG-tagged, wild type (human) (UniProt Q96T53)
# [2] = molecular target: endogenous hGOAT of prostate cancer cells (human (endogenous in 22Rv1 and LNCaP)) (UniProt Q96T53); test: confocal imaging of fluorescent ligand binding and uptake by cells
substance,measurement,setting,value
H-GS-Dap-Nal-1-LSPTK(SulfoCy5)-NH2 (ligand 15) (peptide),inhibition of hGOAT activity by ligand 15,[1],17 nM
same,percent of cells exhibiting ligand binding,[2],100%
